The assay addresses full-length human αIIbβ3 on CHO K1 cells (human, UniProt P08514 32-1039; P05106 27-788). The experiment in a line: cell-based or functional assay.

As for AGDV [AGDV tetrapeptide], the “EC50 of LIBS1 epitope exposure on CHO cells expressing αIIbβ3 (flow cytometry, 1 mM Mg2+ and 1 mM Ca2+)” value turned out to be 1.43 mM.

The values above are taken from article PMC4813479 (The Journal of Biological Chemistry, 2015).
